The target of experiment [1] is activated factor IX (FIXa). Briefly: cell-based or functional assay.
The target in the next experiment is T1, native rVWF 133P1 (human, UniProt P04275 764-2813).
T1 construct: mature; Starting material for PEGylation; multimers of the mature monomer (about 260 kDa on reducing SDS-PAGE); also called unmodified rVWF
In words: SPR (Biacore 3000): native rVWF 133P1 immobilized on CM5 chip, FVIII sample in flow, 1:1 Langmuir model.

B1: FVIII control (mock preparation, not PEGylated) (other)
chain: ATRRYYLGAVELSWDYMQSDLGELPVDARFPPRVPKSFPFNTSVVYKKTLFVEFTDHLFNIAKPRPPWMGLLGPTIQAEVYDTVVITLKNMASHPVSLHAVGVSYWKASEGAEYDDQTSQREKEDDKVFPGGSHTYVWQVLKENGPMASDPLCLTYSYLSHVDLVKDLNSGLIGALLVCREGSLAKEKTQTLHKFILLFAVFDEGKSWHSETKNSLMQDRDAASARAWPKMHTVNGYVNRSLPGLIGCHRKSVYWHVIGMGTTPEVHSIFLEGHTFLVRNHRQASLEISPITFLTAQTLLMDLGQFLLFCHISSHQHDGMEAYVKVDSCPEEPQLRMKNNEEAEDYDDDLTDSEMDVVRFDDDNSPSFIQIRSVAKKHPKTWVHYIAAEEEDWDYAPLVLAPDDRSYKSQYLNNGPQRIGRKYKKVRFMAYTDETFKTREAIQHESGILGPLLYGEVGDTLLIIFKNQASRPYNIYPHGITDVRPLYSRRLPKGVKHLKDFPILPGEIFKYKWTVTVEDGPTKSDPRCLTRYYSSFVNMERDLASGLIGPLLICYKESVDQRGNQIMSDKRNVILFSVFDENRSWYLTENIQRFLPNPAGVQLEDPEFQASNIMHSINGYVFDSLQLSVCLHEVAYWYILSIGAQTDFLSVFFSGYTFKHKMVYEDTLTLFPFSGETVFMSMENPGLWILGCHNSDFRNRGMTALLKVSSCDKNTGDYYEDSYEDISAYLLSKNNAIEPRSFSQNSRHPSQNPPVLKRHQREITRTTLQSDQEEIDYDDTISVEMKKEDFDIYDEDENQSPRSFQKKTRHYFIAAVERLWDYGMSSSPHVLRNRAQSGSVPQFKKVVFQEFTDGSFTQPLYRGELNEHLGLLGPYIRAEVEDNIMVTFRNQASRPYSFYSSLISYEEDQRQGAEPRKNFVKPNETKTYFWKVQHHMAPTKDEFDCKAWAYFSDVDLEKDVHSGLIGPLLVCHTNTLNPAHGRQVTVQEFALFFTIFDETKSWYFTENMERNCRAPCNIQMEDPTFKENYRFHAINGYIMDTLPGLVMAQDQRIRWYLLSMGSNENIHSIHFSGHVFTVRKKEEYKMALYNLYPGVFETVEMLPSKAGIWRVECLIGEHLHAGMSTLFLVYSNKCQTPLGMASGHIRDFQITASGQYGQWAPKLARLHYSGSINAWSTKEPFSWIKVDLLAPMIIHGIKTQGARQKFSSLYISQFIIMYSLDGKKWQTYRGNSTGTLMVFFGNVDSSGIKHNIFNPPIIARYIRLHPTHYSIRSTLRMELMGCDLNSCSMPLGMESKAISDAQITASSYFTNMFATWSPSKARLHLQGRSNAWRPQVNNPKEWLQVDFQKTMKVTGVTTQGVKSLLTSMYVKEFLISSSQDGHQWTLFFQNGKVKVFQGNQDSFTPVVNSLDPPLLTRYLRIHPQSWVHQIALRMEVLGCEAQDLY
Consider B1, for which, in experiment [1], the lag phase (min), FIXa-cofactor activity after thrombin activation came out at 1.13 min; the lag phase (min), FIXa-cofactor activity without thrombin activation came out at 1.8 min; the maximum FXa (nM), FIXa-cofactor activity after thrombin activation came to 33.7 nM; the maximum FXa (nM), FIXa-cofactor activity without thrombin activation stood at 39.6 nM. In experiment [1], this molecule showed a maximum rate (nM FXa/min), FIXa-cofactor activity after thrombin activation of 9.79 nM FXa/min; a maximum rate (nM FXa/min), FIXa-cofactor activity without thrombin activation of 8.8 nM FXa/min; a t1/2 of maximum (min), FIXa-cofactor activity after thrombin activation of 2.85 min; a t1/2 of maximum (min), FIXa-cofactor activity without thrombin activation of 4 min. The same molecule gave a Kd in the experiment with native rVWF 133P1 of 0.55 nM.

Source of the values: US20080234193A1 (published 2008).
